The text below walks through data of US20210033615A1 (DEUTSCHES KREBSFORSCHUNGSZENTRUM STIFTUNG DOES OFFENTLICHEN …, published 2021).

In assay [1] the target is T1, PFKFB4 tagged at the C-terminal with the Large BiT (human, UniProt Q16877 1-469).
T1 construct: Expressed in HEK293 cells for the NanoBiT assay; also called C-ter[LgBiT]PFKFB4; tagged PFKFB4; not shown: Large BiT (LgBiT) tag and any linker from the pLVX1.1-C[TK/LgBiT]; NanoBiT vector
The assay can be described thus: NanoBiT luminescence complementation in HEK293 cells; counted positive if the signal is at least 10-fold that of the negative control. The source says: The NanoBiT® assay from Promega is widely used to investigate protein-protein interactions. The NanoBiT Assay is described in detail in Dixon et al., (2016) “NanoLuc Complementation Reporter Optimized for Accurate Measurement of Protein Interactions in Cells” (ACS Chem. Biol., 11, 400-408; which is incorporated herein by reference in its entirety). The inventors adapted this method to develop a cellular screening assay in order to investigate the interaction of PFKFB4 with FBXO28. In that respect, both genes were cloned into pLVX vectors containing the four NanoBiT® versions (pLVX1.1-N[TK/LgBiT], pLVX2.1-N[TK/SmBiT], pLVX1.1-C[TK/LgBiT] and pLVX2.1-C[TK/SmBiT]), allowing the small and large BiT tags to be at the N- or C-terminal of both proteins of interest. As negative control, a vector containing a HaloTag protein cloned to the small BiT was used in combination with the large BiT cloned to either FBXO28 or PFKFB4.
All vectors were transfected in HEK293 cells and the combinations were tested as depicted in FIG. 7A. The luminescent signal was detected with the Nano-Glo® Luciferase Assay System from Promega. The interaction was considered positive if the signal was at least 10-fold of the respective negative control. […]

Assay [2] has as its target T2, 6-phosphofructo-2-kinase/fructose-2,6-biphosphatase 4 (PFKFB4) (human, UniProt Q16877 1-469).
T2 construct: It was expressed inside cells (GSCs, HEK293) or in yeast two-hybrid; any tags in the coIP and Y2H are not described; also called untagged PFKFB4
The assay can be described thus: NanoBiT competition in HEK293 cells.

T1 sequence (Q16877 whole entry): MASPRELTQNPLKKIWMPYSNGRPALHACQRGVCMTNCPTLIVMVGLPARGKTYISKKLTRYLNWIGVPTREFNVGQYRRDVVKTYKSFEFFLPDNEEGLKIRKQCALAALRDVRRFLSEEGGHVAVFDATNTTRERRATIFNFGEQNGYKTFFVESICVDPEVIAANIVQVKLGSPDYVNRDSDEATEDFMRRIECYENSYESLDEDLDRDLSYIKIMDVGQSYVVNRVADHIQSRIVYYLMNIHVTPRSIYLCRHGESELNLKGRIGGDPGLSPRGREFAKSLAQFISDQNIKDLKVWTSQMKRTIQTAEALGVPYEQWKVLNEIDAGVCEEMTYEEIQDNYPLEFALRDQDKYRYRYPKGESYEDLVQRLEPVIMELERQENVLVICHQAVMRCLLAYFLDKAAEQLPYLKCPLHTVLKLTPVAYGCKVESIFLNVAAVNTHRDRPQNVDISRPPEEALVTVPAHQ
T2 sequence (Q16877 whole entry): as above

B1: FBXO28 tagged at the N-terminal with the small BiT (other)
chain: MAAAAEERMAEEGGGGQGDGGSSLASGSTQRQPPPPAPQHPQPGSQALPAPALAPDQLPQNNTLVALPIVAIENILSFMSYDEISQLRLVCKRMDLVCQRMLNQGFLKVERYHNLCQKQVKAQLPRRESERRNHSLARHADILAAVETRLSLLNMTFMKYVDSNLCCFIPGKVIDEIYRVLRYVNSTRAPQRAHEVLQELRDISSMAMEYFDEKIVPILKRKLPGSDVSGRLMGSPPVPGPSAALTTMQLFSKQNPSRQEVTKLQQQVKTNGAGVTVLRREISELRTKVQEQQKQLQDQDQKLLEQTQIIGEQNARLAELERKLREVMESAVGNSSGSGQNEESPRKRKKATEAIDSLRKSKRLRNRK
notes: Expressed in HEK293 cells for the NanoBiT assay; also called N-ter[SmBiT]FBXO28; tagged FBXO28; not shown: Small BiT (SmBiT) tag and any linker from the pLVX2.1-N[TK/SmBiT]; NanoBiT vector
Take B1: the binding result in assay [1] and in assay [2] was “binds” in each case.
